# Legend:
# Assay in all cases: yeast interaction trap (two-hybrid), LexAop-lacZ reporter pJK103 in EGY48, galactose medium
# [1] = target: LexA-Cdc2 (Dm) bait protein (Drosophila) (UniProt P23572)
# [2] = target: LexA-Cdc2 (Hs) bait protein (human) (UniProt P06493)
# [3] = target: LexA-Cdc28 (Sc) bait protein (S. cerevisiae) (UniProt P00546)
# [4] = target: LexA-Cdc2c (Dm) bait protein (Drosophila) (UniProt P23573)
# [5] = target: LexA-Cdk2 (Hs) bait protein (human) (UniProt P24941)
# [6] = target: LexA-Fus3 (Sc) bait protein (S. cerevisiae) (UniProt P16892)
substance,measurement,setting,value
tagged Cdi1 (activation-tagged prey fusion expressed from library plasmid pJG4-5),β-Galactosidase Activity (β-galactosidase units),[1],40
same,β-Galactosidase Activity (β-galactosidase units),[2],1580
same,β-Galactosidase Activity (β-galactosidase units),[3],480
same,β-Galactosidase Activity (β-galactosidase units),[4],> 2
same,β-Galactosidase Activity (β-galactosidase units),[5],440
same,β-Galactosidase Activity (β-galactosidase units),[6],> 2

# Source: patent publication US5786169
